Consider 19 sequences from a protein production outcome set (Wang et al. 2014).
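Note: failed if final PepcDB status was selected cloned or expressed and not failed if soluble or beyond.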

This series can be described thus: label from the status in PepcDB records.
For “MIKLPVLLADINIQSLPTEPELILNNLAITTLVENLIILLLVATLVALVARWLKIPYVIGLVLAGLAIPRGLSVGLNPELILNFFLPILIFEAAINTDISRLRSTIKPITVLAGPGVVISAAITAVLLKIGLGLAWVTAAGVSVILTITDTVSVIAAFRSVPVPRRLATIVEGESMLNDGVAMVLLSVITTIHIQGGFSAGEGIRQIFVAFVGGGLVGLGLGYLCVGLFRQLNDDLSDILLTVSVSLGTFQIGQMLGVSSAIAVVVAGLVIGNLALKQTSASIKVTLLSFWEYAGFGVNTLIFLLVGIEVYPSILLSTIPAALIAIVAYQIGRVFSIYPLLYLLSFFDRPLPLRWQHVLIAGNVKGSLSMALALALPLTLPGRDQVVTLVFSTVMVSLIGQGLSLPWVVKKLQLSKPSPLAQKIAMLQLNLVTAKAAQGELKYLLEAGSLPKFLYEELFADYQARIANSEQELREFYNQRNLIFSEGEVEKKYIDGLYRRLYIAEKSAINDALAKGILADDISDEYLQVLNEKLLALQDD”, the protein production result is “failed”.

With “MMEERAAAAVASAASSCRPLGSGTAPNPTAAAPASSPAPGPGPVGKGGGGGGSPGPTAGPEPLSLPGILHFIQHEWARFEAEKARWEAERAELQAQVAFLQGERKGQENLKTDLVRRIKMLEYALKQERAKYHKLKFGTDLNQGEKKTDLSEQVSNGPVESVTLENSPLVWKEGRQLLRQYLEEVGYTDTILDMRSKRVRSLLGRSLELNGAGEPVEGAPRASPGPGGLSGGESLLVKQIEEQIKRNAAGKDGKERLGGSVLEQIPFLQNCEDEDSDEDDELDSVQHKKQRVRLPSKALVPEMEDEDEEDDSEDAINEFDFLGSGEDGEGSPDPRRCTSEGNPHELESRRVKLQGILADLRDVDGLPPKVTVPPPGTPQPRPHEGSFGFSSDVFIMDTIGGGEVSLGDLADLTVTNDNDLSCDLSDSKDAFKKTWNPKFTLRSHYDGIRSLAFHHSQSALLTASEDGTLKLWNLQKAVTAKKNAALDVEPIHAFRAHRGPVLAVTMGSNSEYCYSGGADARIHSWKIPDLNMDPYDGYDPSVLSHVLEGHGDAVWGLAFSPTSQRLASCSADGTVRIWDPSSSGPSCLCTFPMDGEHGIPTSVAFTSTEPAHVVASFRSGDTVLYDLEAGSALLTLESRGSSGPAQINQVVSHPSQPLTITAHDDRGIRFLDNRTGKSVHSMVAHLDAVTCLAVDPNGVFLMSGSHDCSLRLWSLDNKTCVQEITAHRKKHEEAIHAVACHPSKALIASAGADALAKVFV”, the protein production result is recorded as “failed”.

“AIYVDLPNRQLKVKVADRRVISTTDAERQAVTPPGLQEAINDLVKKYTLARAFVRPSGTEDIVRVYAEANSQESADRLAYEVSLLVFQLAGGIGERPQP”: the protein production entry is given as “not failed”.

With “MLSTEHFLLFASIVLFAGIMAGKVGYRFGIPTLLIFLFTGMLFGVDGFGFQFSNADVAQSVGIIALSIILFTGGMDTRIRKVRPVIAQGLTLSTLGVLLTALLSGFFIFWLSGSDFGPYPFALSTSLLLAATMASTDSASVFAILRSQKMQLKENLAPTLEMESGSNDPMAYMLTIALIDFITTGQSGIGSIVLTFILQFVVGGTLGFLMGRLAVFILNRMNIHNDTLYPITLLCMVFFTFSVTSLLQGNGYLAVYIAGIVVGNNRVIHKKSINTFLDGITWLVQIILFILLGLLVNPREMLDVAPFSLVVGAFMILIARPLAVYFCLIPFRKISFRGKTFLSWVGLRGAVPIIFATYPMIDNIPGADQLFNVVFFITILSLLVQGSTISQVARWLGLDIPSPPIGSLFGVEIPEETGTKLEERVVDASMLSHGDLLMNLSLRDEELVILVRRGEGYRVPKGRMHLQVGDVLLIVSEKNLSQTLTSGDPENHPGLLQRLKHRLLRR”, the protein production entry is “failed”.

Take “MLRSLDIRDMLIIDRLSLAFQPGLNVLTGETGAGKSILLDSLGFVLGWRGRAELVRAGADKGEVTAVFDLPPGHAARAVLDEAGIEAEDELILRRVNFADGRKTAWVNDRRVSGEVLRGLSDRLVELHGQHDDRGLLNPRGHRQMLDTFAGLDLSACRRAWTALGTARRTLLAAEEALAAVRAEEDFLRHAVAELDKLDPQPGEEALLDTRRREMQGAEKIRDDIARAHRALSAEGAETLLVD”: the protein production result is on record as “failed”.

Turning to “MQVFLQGLLFGIVYIAPIGMQNLFVVSTAIEQPLQRALRVALIVIAFDTSLSLACFYGVGRLLQTTPWLELGVLLIGSLLVFYIGWNLLRKKATAMGTLDADFSYKAAILTAFSVAWLNPQALIDGSVLLAAFRVSIPAALTHFFMLGVILASIIWFIGLTSLISKFKHLMQPRVLLWINRICGGIIILYGVQLLATFITKI”, the protein production result was “failed”.

In the case of “MAPIFLEYKVVHDNITYYIIYVFIYNLSLKLVTMYTINPSSHTILNYNVSLEPEQIFSNITGVSTYYSLDGKKILAYEDNNGSIIVAYNGLILKKASNNSVRYLIAANYPGIDNSKFPSLYKLAEISIFDSNIRVLVLGVLLTILSSFILKVMVGRYDKVR”, the protein production result is on record as “failed”.

Take “MLYIIGLGLYDEKDITVRGLEAVKSCDLVFLEHYTAILQCDVAKLEEFYGKKVIIGDRDLVETEADQILEPAKTKNVALLVVGDVYGATTHSDIFVRCQKMGIEVKVIHNASIMNAIGCSGLQLYRFGQTVSVCFWSEHWRPSSYYPKIKINRDNNMHTLVLLDIKVKERSEENIIKGRDIFEPPRYMTINQCIEQLLEVEKEQHLGVYDEDTMVVGMARVACADQKIVYGKMKDLLHYDFGAPMHCLLIPAPQVDDPELDHLEYFKYKPE”: the protein production entry was “not failed”.

Consider “MAEICLITGTPGSGKTLKMVSMMANDEMFKPDENGIRRKVFTNIKGLKIPHTYIETDAKKLPKSTDEQLSAHDMYEWIKKPENIGSIVIVDEAQDVWPARSAGSKIPENVQWLNTHRHQGIDIFVLTQGPKLLDQNLRTLVRKHYHIASNKMGMRTLLEWKICADDPVKMASSAFSSIYTLDKKVYDLYESAEVHT”, for which the protein production entry was “not failed”.

As for “MLTVGILGGGQLGWMTILEGRKLGFKFHVLEDKENAPACRVADRCFRTGQISEFVDSCDIITYEFEHIKDEVLEKCESKLIPNPQALYVKKSRIREKLFLKKHGFPVPEFLVIKRDEIIDALKSFKLPVVIKAEKLGYDGKGQYRIKKLEDANQVVKNHDKEESFIIEEFVKFEAEISCIGVRDREGKTYFYPQPFNKHEEGILIYNYVPYAKLKEAEEITKRLMELLDIVGVFTVEFFLLKDGRVLINEFAPRVHNTGHWTLDGAYTSQFENLLRAITEMPLGSTELKLPSGMVNILGKSYEEIPLKEILSVEGAKLYWYGKEKKPRRKVGHVNVVGRSKEEVVEKVERVFTLLKGSREKLPAP”, the protein production entry is recorded as “not failed”.

Take “MQDASAWMLALAGLCVGVTAGFFVRLARLCSFGAVEDALMGGDTRRLRIFGLALGIALLGTQALVIAGQLDPGQSNYTAPALPLISIAIGSVLFGIGMAFVGTCGFGSLVRLGGGDLRSFVVILVLGGAAYATLRGMFSGFRITVLERFAITMPEGVNTDLAALTQHLSGIDLRAVIAALGGGLLCLIALGDKRLRRTPRLLAAGVALGLLTVVGWLATTKLADPFAGPVHPQSLTFVSTVGKAVYAGLLNVANFADFGVGTVFGVIAGAFIAAWHTDELRWEAFDDDHEMRRHVAGAALMGFGGILTGGCTIGQGITAGSVMALSWPIAIVGMMFGARIGIAVLVDGSPRELIRRRFDAWRELLQRRRAPALTAANRPNHRPAAPSDAPRPTAPHSLAE”: the protein production result is given as “failed”.

In the case of “MGPMRTLTVAIDWILIILFVISIILLIYALVKKNKKMAKYAGIAAAIIFILLFIAMRFALTVKPGQ”, the protein production result is reported as “failed”.

With “MRSFLKRTQCAQLRSTPSLIFSTGITHPAETALQRFKFLMYQVVASDLDGTLLSPDHTLSPYAKEPLKLLTARGINFVFATGRHHVDVGQIRDNLEIKSYMITSNGARVHDLDGNLIFAHNLDRDIASDLFGVVNDNPDIITNVYRDDEWFMNRHRPEEMRFFKEAVFKYALYEPGLLEPEGVSKVFFTCDSHEQLLPLEQAINARWGDRVNVSFSTLTCLEVMAGGVSKGHALEAVAKKLGYSLKDCIAFGDGMNDAEMLSMAGKGCIMGSAHQRLKDLHPELEVIGTNADDAVPHYLRKLYLS”, the protein production entry is listed as “failed”.

With “MSTIFDTHWPWMGIGIACVLIILLFFTNTLRSDLRVNRWYDPFWLAWFSSTAYFIHNFEEYGIDLFGRHFEFPHLMTQTMHITPEISFFTMINIPLIWIAGPILAMMSKHRPVISLIMTGLMFTNALSHIVPLISSGMYTSGLFTSIVIFIPGSLWIYYIRFIKGNLRWSILIVSLIPPIITQGLLMLSILMYRNDFLNDTTVTVFELLNGCLFIIIAFIMEKSFKRKYKN”, the protein production result was “failed”.

For the sequence “MRRFLLSAAKILVSAALLYLALRKTDFAALAARIDATSFGWLAAAVAATIFQLFVNAVRWRAIGACCEAPLTTGRSMRYAMIGSFFNQTLPSAIGGDAVRVWLLARAGAGWRAATYSVFVDRATGLIALSAIIFVTLPWTLRLIDNADGRLGLMLLDFAALGAGVVFLTLPFLRFGLLDRIWATRHMRGCSEVALKALSSPKSAVILIATSLIIPILAVVIAWCVARAIESPSSFVQLFELVPPIMLITMIPISIAGWGVREASMGLAFGYAGLNPSDGVAVSLLFGAVYFVVGGIGGLIWIMSAEKAAKGDAPIEVPE”, the protein production entry is listed as “failed”.

For the sequence “MPSLNQIFFGPPGTGKTYATVEATLQILDQPFLAKNAGSRSALKARFDELLAAGDVRFVTFHQSFSYEDFVEGLRATTDEQGQIRYEVVSGVFRSLCESVATELSGKYRAFKVGDRYGTGYKVTRATPDVVEIEKPQGKHLPIGMSLLNTLASYVDAGTFTIEELGNGRWDKKVPGSVLDPFLVNGYKNFLPSMVEHMLGKNEEGLFEPAPVQHSDAKVLIIDEINRGNVSRIFGELITLIEPSKRAGADEALEVTLPYSKERFSIPGNIHLIGTMNTADRSLAALDIALRRRFTFIEVPPNPELLDEVEVDGIAIDELLSLMNQRIAALLDRDHCLGHAYFMPLKDEPTLERLEGIFREQILPLLQEYFFEDWQRIQWVLNDQRKAPENSFLIQLSQDLIALFGDTVTVGQSNERWELNLPAFQKIESYLGVIDHNLKVGAPLEAKNVRTDGIDIRQSADGCIDVYRGGQHIKPTKPLLRELASKHGISSTSASGSELNTRSLGRKIIKFLSEQQG”, the protein production entry is “failed”.

Consider “SPSKVQELSVYEINELDRHSPKILKNAFSLMFGLGDLVPFTNKLYTGDLKKRVGITAGLCVVIEHVPEKKGERFEATYSFYFGDYGHLSVQGPYLTYEDSFLAITGGAGIFEGAYGQVKLQQLVYPTKLFYTFYLKGLANDLPLELTGTPVPPSKDIEPAPEAKALEPSGVISNYTN”, for which the protein production result is given as “failed”.

“MSSEMEPLLLAWSYFRRRKFQLCADLCTQMLEKSPYDQAAWILKARALTEMVYIDEIDVDQEGIAEMMLDENAIAQVPRPGTSLKLPGTNQTGGPSQAVRPITQAGRPITGFLRPSTQSGRPGTMEQAIRTPRTAYTARPITSSSGRFVRLGTASMLTSPDGPFINLSRLNLTKYSQKPKLAKALFEYIFHHENDVKTIHLEDVVLHLGIYPFLLRNKNHIEKNALDLAALSTEHSQYKDWWWKVQIGKCYYRLGMYREAEKQFKSALKQQEMVDTFLYLAKVYVSLDQPVTALNLFKQGLDKFPGEVTLLCGIARIYEEMNNMSSAAEYYKEVLKQDNTHVEAIACIGSNHFYSDQPEIALRFYRRLLQMGIYNGQLFNNLGLCCFYAQQYDMTLTSFERALSLAENEEEAADVWYNLGHVAVGIGDTNLAHQCFRLALVNNNNHAEAYNNLAVLEMRKGHVEQARALLQTASSLAPHMYEPHFNFATISDKIGDLQRSYVAAQKSEAAFPDHVDTQHLIKQLRQHFAML”: the protein production entry is on record as “failed”.

For “MRRASQMFDFIGFKEGAMAFLLAFALAGLFTIAFKYVYQWVTPYNEKALIREGNTAAAIALAGALIGYVLPLASALSHTVSLPEFAAWATLAGVIQIAAFTGVRLVALPDVKARIENGEVSVGVYLAGISIAVGLLNAACMTT”, the protein production result is listed as “failed”.
